According to article PMC6138639, “The ZZ-type zinc finger of ZZZ3 modulates the ATAC complex-mediated histone acetylation and gene activation” (Nature Communications, 2018):
Where no end group is shown, it is not given here.

Experiments:
Conditions in all cases: both partners purified
[1] = biological target: T1, GST-ZZZ3 ZZ domain (amino acids 800–903) (human, UniProt Q8IYH5 800-903); assay: pull-down; peptide pulldown: 1 µg biotinylated histone peptide with 1–2 µg GST-fused protein in 50 mM Tris–HCl 7.5, 300 mM NaCl, 0.1% NP-40, overnight; streptavidin beads; western blot
T1 construct: ZZ-type zinc finger domain of human ZZZ3, amino acids 800–903, in pGEX-6P1; also called GST-fused ZZZ3 ZZ; source: E. coli BL21 (DE3) RIL, purified (glutathione Sepharose 4B)
T1 sequence (looked up): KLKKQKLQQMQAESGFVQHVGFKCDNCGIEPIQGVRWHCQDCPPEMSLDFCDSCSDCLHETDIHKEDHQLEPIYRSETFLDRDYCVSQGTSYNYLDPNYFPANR

[2] = biological target: T2, ZZZ3 ZZ domain (aa 816–874) (human, UniProt Q8IYH5 816-874); assay: NMR structure; solution structure; 2 mM 13C/15N-labeled ZZZ3 (816–874) with 10 mM H3 (1–12) or 4 mM H3K4ac (1–8); 298 K; 20 mM Tris–HCl pH 7.0, 100 mM NaCl, 5 mM DTT
T2 construct: 13C/15N isotope-labelled sample for the NMR structures
T2 sequence (looked up): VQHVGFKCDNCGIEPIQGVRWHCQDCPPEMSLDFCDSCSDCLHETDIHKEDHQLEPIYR

[3] = biological target: T3, ZZZ3 ZZ domain (aa 800–903), GST cleaved (human, UniProt Q8IYH5 800-903); assay: MST; displacement assay: unlabeled peptide added to a preformed complex of 5 μM ZZ (aa 800–903) and 80 nM C-terminal fluorescein-labeled H3 (1–12); 20 mM Tris–HCl pH 7.0, 150 mM NaCl, 3 mM DTT
T3 construct: ZZ domain of human ZZZ3, aa 800–903; also called WT ZZZ3 ZZ; source: E. coli BL21 (DE3) RIL, purified (glutathione Sepharose, PreScission cleavage, size-exclusion chromatography)
T3 sequence (looked up): T1 sequence (looked up)

B1: histone H3 peptide of the N-terminal eight amino acids, biotinylated (peptide, UniProt P68431 2-9, looked up)
peptide: ARTKQTAR
modifications: also: biotinylated, position not given here
notes: histone H3, N-terminal eight amino acids; also called The N-terminal eight amino acids of H3; source: synthetic peptide (CPC and Scilight Biotechnology)
B1: binds [1].

B2: unmodified histone H3 tail peptide (aa 1–12) (peptide, UniProt P68431 2-13, looked up)
peptide: ARTKQTARKSTG
notes: histone H3, aa 1–12; also called H3 (1–12); H3 peptide; source: synthetic peptide
B2: binds [2]; binds [3].

B3: H3K4ac (1–12) peptide, unlabeled (peptide, UniProt P68431 2-13, looked up)
peptide: ARTK(Ac)QTARKSTG
notes: histone H3, aa 1–12; source: synthetic peptide
For B3, the “fold enhancement of binding over the unmodified H3 peptide” value [3] was 3 fold.

B4: H3K4ac peptide (aa 1–8) (peptide, UniProt P68431 2-9, looked up)
peptide: ARTK(Ac)QTAR
notes: histone H3, aa 1–8; also called H3K4ac (1–8); source: synthetic peptide
B4: binds [2].
